Measurements published in patent US12269859B2, “Synthetic immune receptors and methods of use thereof” (Angeles Therapeutics, Inc., priority 2016, dated 2025).

B1: 012517-D12 (protein)
chain: MALPVTALLLPLALLLHAARPLEGKPIPNPLLGLDSTGSGEDLKNVFPPEVAVFEPSKAEIAHTQKATLVCLATGFYPDHVELSWWVNGKEVHSGVCTDPQPLKEQPALNDSRYCLSSRLRVSATFWQNPRNHFRCQVQFYGLSENDEWTQDRAKPVTQIVSAEAWGRADCGITSASYHQGVLSATILYEILLGKATLYAVLVSALVLMAMVKRKDSRGRAKRSGSGATNFSLLKQAGDVEENPGPTSMALPVTALLLPLALLLHAARPDVVMTQTPLSLSVTPGQPASISCRSSQSLVHSNGLTYLHWYLQKPGQSPQLLIYKVSNRFSGVPDRFSGSGSGTDFTLKISRVEAEDVGVYFCSQSTHVPPFTFGGGTKVEIKGGGGSGGGGSGGGGSEVQLVESGGGLVQPGGSLRLSCAASGFTFSDYYMAWVRQAPGKGLEWVASINYDGESTYYVDSVKGRFTISRDNAKNSLYLQMNSLRAEDTAVYYCARDRGYYFDYWGQGTTVTVSSTREQKLISEEDGSGIQNPDPAVYQLRDSKSSDKSVCLFTDFDSQTNVSQSKDSDVYITDKCVLDMRSMDFKSNSAVAWSNKSDFACANAFNNSIIPEDTFFPSSDVPCDVKLVEKSFETDTNLNFQNLSVIGFRILLLKVAGFNLLMTLRLWSSRAKRSGSGVKQTLNFDLLKLAGDVESNPGPSRGHMTEYKPTVRLATRDDVPRAVRTLAAAFADYPATRHTVDPDRHIERVTELQELFLTRVGLDIGKVWVADDGAAVAVWTTPESVEAGAVFAEIGPRMAELSGSRLAAQQQMEGLLAPHRPKEPAWFLATVGVSPDHQGKGLGSAVVLPGVEAAERAGVPAFLETSAPRNLPFYERLGFTVTADVEVPEGPRTWCMTRKPGA
B2: 022817-N08 (protein)
chain: MALPVTALLLPLALLLHAARPDVVMTQTPLSLSVTPGQPASISCRSSQSLVHNNGNTYLHWYLQKPGQSPQLLIYKVSNRFSGVPDRFSGSGSGTDFTLKISRVEAEDVGVYFCSQSTHVPPYTFGGGTKVEIKLEEQKLISEEDLGSGEDLKNVFPPEVAVFEPSKAEIAHTQKATLVCLATGFYPDHVELSWWVNGKEVHSGVCTDPQPLKEQPALNDSRYCLSSRLRVSATFWQNPRNHFRCQVQFYGLSENDEWTQDRAKPVTQIVSAEAWGRADCGITSASYHQGVLSATILYEILLGKATLYAVLVSALVLMAMVKRKDSRGRAKRSGSGATNFSLLKQAGDVEENPGPTSMDWIWRILFLVGAATGAHSFEEVQLVESGGGLVQPGGSLRLSCAASGFTFSDYYMAWVRQAPGKGLEWVAEINYDGSSTYYVDSVKGRFTISRDNAKNSLYLQMNSLRAEDTAVYYCARDRGFYFDYWGQGTTVTVSSTREQKLISEEDLGSGIQNPDPAVYQLRDSKSSDKSVCLFTDFDSQTNVSQSKDSDVYITDKCVLDMRSMDFKSNSAVAWSNKSDFACANAFNNSIIPEDTFFPSSDVPCDVKLVEKSFETDTNLNFQNLSVIGFRILLLKVAGFNLLMTLRLWSSRAKRSGSGVKQTLNFDLLKLAGDVESNPGPSRGHMTEYKPTVRLATRDDVPRAVRTLAAAFADYPATRHTVDPDRHIERVTELQELFLTRVGLDIGKVWVADDGAAVAVWTTPESVEAGAVFAEIGPRMAELSGSRLAAQQQMEGLLAPHRPKEPAWFLATVGVSPDHQGKGLGSAVVLPGVEAAERAGVPAFLETSAPRNLPFYERLGFTVTADVEVPEGPRTWCMTRKPGA
B3: 010417-Z03 (protein)
chain: MALPVTALLLPLALLLHAARPLEGKPIPNPLLGLDSTGSGEDLKNVFPPEVAVFEPSKAEIAHTQKATLVCLATGFYPDHVELSWWVNGKEVHSGVCTDPQPLKEQPALNDSRYCLSSRLRVSATFWQNPRNHFRCQVQFYGLSENDEWTQDRAKPVTQIVSAEAWGRADCGITSASYHQGVLSATILYEILLGKATLYAVLVSALVLMAMVKRKDSRGRAKRSGSGATNFSLLKQAGDVEENPGPTSTMALPVTALLLPLALLLHAARPDIQMTQSPSSLSASVGDRVTITCKASQDVGIAVAWYQQKPGKVPKLLIYWASTRHTGVPDRFSGSGSGTDFTLTISSLQPEDVATYYCQQYSSYPYTFGQGTKVEIKGGGGSGGGGSGGGGSEVQLVESGGGLVQPGGSLRLSCAASGFDFSRYWMSWVRQAPGKGLEWIGEINPDSSTINYAPSLKDKFIISRDNAKNSLYLQMNSLRAEDTAVYYCARPDGNYWYFDVWGQGTLVTVSSTREAAAKEIVMTQSPATLSLSPGERATLSCRASQDISKYLNWYQQKPGQAPRLLIYHTSRLHSGIPARFSGSGSGTDYTLTISSLQPEDFAVYFCQQGNTLPYTFGQGTKLEIKGGGGSGGGGSGGGGSQVQLQESGPGLVKPSETLSLTCTVSGVSLPDYGVSWIRQPPGKGLEWIGVIWGSETTYYNSSLKSRVTISKDNSKNQVSLKLSSVTAADTAVYYCAKHYYYGGSYAMDYWGQGTLVTVSSTREQKLISEEDGSGIQNPDPAVYQLRDSKSSDKSVCLFTDFDSQTNVSQSKDSDVYITDKCVLDMRSMDFKSNSAVAWSNKSDFACANAFNNSIIPEDTFFPSSDVPCDVKLVEKSFETDTNLNFQNLSVIGFRILLLKVAGFNLLMTLRLWSSRAKRSGSGVKQTLNFDLLKLAGDVESNPGPSRGHMTEYKPTVRLATRDDVPRAVRTLAAAFADYPATRHTVDPDRHIERVTELQELFLTRVGLDIGKVWVADDGAAVAVWTTPESVEAGAVFAEIGPRMAELSGSRLAAQQQMEGLLAPHRPKEPAWFLATVGVSPDHQGKGLGSAVVLPGVEAAERAGVPAFLETSAPRNLPFYERLGFTVTADVEVPEGPRTWCMTRKPGA
B4: 010417-V07 (protein)
chain: MALPVTALLLPLALLLHAARPLEGKPIPNPLLGLDSTGSGEDLKNVFPPEVAVFEPSKAEIAHTQKATLVCLATGFYPDHVELSWWVNGKEVHSGVCTDPQPLKEQPALNDSRYCLSSRLRVSATFWQNPRNHFRCQVQFYGLSENDEWTQDRAKPVTQIVSAEAWGRADCGITSASYHQGVLSATILYEILLGKATLYAVLVSALVLMAMVKRKDSRGRAKRSGSGATNFSLLKQAGDVEENPGPTSTMALPVTALLLPLALLLHAARPDIQMTQSPSSLSASVGDRVTITCKASQDVGIAVAWYQQKPGKVPKLLIYWASTRHTGVPDRFSGSGSGTDFTLTISSLQPEDVATYYCQQYSSYPYTFGQGTKVEIKGGGGSGGGGSGGGGSEVQLVESGGGLVQPGGSLRLSCAASGFDFSRYWMSWVRQAPGKGLEWIGEINPDSSTINYAPSLKDKFIISRDNAKNSLYLQMNSLRAEDTAVYYCARPDGNYWYFDVWGQGTLVTVSSTREAAAKEIVLTQSPATLSLSPGERATLSCSASSSVSYMHWYQQKPGQAPRLLIYDTSKLASGIPARFSGSGSGTDFTLTISSLEPEDVAVYYCFQGSVYPFTFGQGTKLEIKRGGGGSGGGGSGGGGSQVQLQESGPGLVKPSQTLSLTCTVSGGSISTSGMGVGWIRQHPGKGLEWIGHIWWDDDKRYNPALKSRVTISVDTSKNQFSLKLSSVTAADTAVYYCARMELWSYYFDYWGQGTLVTVSSTREQKLISEEDGSGIQNPDPAVYQLRDSKSSDKSVCLFTDFDSQTNVSQSKDSDVYITDKCVLDMRSMDFKSNSAVAWSNKSDFACANAFNNSIIPEDTFFPSSDVPCDVKLVEKSFETDTNLNFQNLSVIGFRILLLKVAGFNLLMTLRLWSSRAKRSGSGVKQTLNFDLLKLAGDVESNPGPSRGHMTEYKPTVRLATRDDVPRAVRTLAAAFADYPATRHTVDPDRHIERVTELQELFLTRVGLDIGKVWVADDGAAVAVWTTPESVEAGAVFAEIGPRMAELSGSRLAAQQQMEGLLAPHRPKEPAWFLATVGVSPDHQGKGLGSAVVLPGVEAAERAGVPAFLETSAPRNLPFYERLGFTVTADVEVPEGPRTWCMTRKPGA

Tested on: target antigen-expressing cell line
Test: Jurkat NFAT-GFP assay, coculture with target cell lines expressing the respective target antigen (summary Table 10A)
Assay type: cell-based, human
Parameters: key: The signs +/−, +, 2+ etc. after the name of the cell lines indicate the relative degree of positivity on the Jurkat-NFAT-GFP assay as measured by the % GFP positive cells; +: relative degree of positivity on the Jurkat-NFAT-GFP assay as measured by the % GFP positive cells; 2+: relative degree of positivity on the Jurkat-NFAT-GFP assay as measured by the % GFP positive cells
In short: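 Coculture of SIR-bearing Jurkat NFAT-GFP reporters with target cells, ~1:2 E:T, ~4–18 h. FACS quantified % GFP+ cells, ranked semi-quantitatively against parental Jurkat-NFAT-GFP.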

| Molecule | NFAT-GFP ASSAY Positive Cell lines (coculture with L363 cells) | NFAT-GFP ASSAY Positive Cell lines (coculture with U266 cells) | NFAT-GFP ASSAY Positive Cell lines (coculture with NALM6 cells) | NFAT-GFP ASSAY Positive Cell lines (coculture with RAJI cells) |
| --- | --- | --- | --- | --- |
| B1 | U266 (+), L363 (+) | U266 (+), L363 (+) | – | – |
| B2 | (+/−) | U266 (+/−), L363 | – | – |
| B3 | – | – | NALM6 | RAJI |
| B4 | (+), L363 (+), U266 | (+) | (+), L363 (+), U266 | RAJI (+), NALM6 |
